Data as given in patent US20240410826A1.

How the values were obtained:
[1] = molecular target: Human colostrum IgA (Catalog No. 16-13-090701, Athens Research and Technology) (human); experiment: ESM counting of landing events on BSA-coated ITO; 5 nM anti-IgA mixed with 5 nM IgA in free solution; fraction of IgA still free in the third minute
[2] = molecular target: Human colostrum IgA (Catalog No. 16-13-090701, Athens Research and Technology) (human); experiment: ESM real-time size (DH) of PEG-tethered single IgA on ITO after adding anti-IgA; mean of ~60 binding events
[3] = molecular target: Human colostrum IgA (Catalog No. 16-13-090701, Athens Research and Technology) (human); experiment: ESM parallel kinetics; binding in free solution in a mixture of anti-IgA, IgA and IgM, 2.5 nM each; fit of IgA monomer ratio decay
[4] = molecular target: Human colostrum IgA (Catalog No. 16-13-090701, Athens Research and Technology) (human); experiment: ESM counting of landing events of IgA monomer and complex on BSA-coated ITO; binding in free solution; fit of monomer ratio decay
[5] = molecular target: Human colostrum IgA (Catalog No. 16-13-090701, Athens Research and Technology) (human); experiment: ESM digital single-molecule counting; 20 nM IgA flowed over anti-IgA fixed on cover glass; first-order fit
[6] = molecular target: Human colostrum IgA (Catalog No. 16-13-090701, Athens Research and Technology) (human); experiment: ESM digital single-molecule counting; 20 nM IgA flowed over anti-IgA fixed on cover glass; KD=koff/kon
[7] = molecular target: Human colostrum IgA (Catalog No. 16-13-090701, Athens Research and Technology) (human); experiment: single-objective ESM digital counting; 5 nM IgA flowed over anti-IgA fixed on ITO; first-order fit
[8] = molecular target: Human colostrum IgA (Catalog No. 16-13-090701, Athens Research and Technology) (human); experiment: ESM counting of landing events on BSA-coated ITO; 5 nM anti-IgA mixed with 5 nM IgA in free solution; fraction of IgA still free in the first minute
[9] = molecular target: Human colostrum IgA (Catalog No. 16-13-090701, Athens Research and Technology) (human); experiment: single-objective ESM digital counting; 5 nM IgA flowed over anti-IgA fixed on ITO; KD=koff/kon
[10] = molecular target: Human colostrum IgA (Catalog No. 16-13-090701, Athens Research and Technology) (human); experiment: ESM end-point size histogram of IgA/BSA mixture tethered on ITO, before (12.1±1.2 nm) and after (13.6±2.1 nm) adding anti-IgA; ~420 molecules
[11] = molecular target: Human colostrum IgA (Catalog No. 16-13-090701, Athens Research and Technology) (human); experiment: ESM real-time charge (q) of PEG-tethered single IgA on ITO after adding anti-IgA; mean of ~60 binding events

- IgA monomer ratio (third minute) [1]: 0.5
- average size change on antibody binding [2]: 1.7 nm
- Kd [3]: 1.84 nM
- koff [3]: 0.00148 s⁻¹
- kon [3]: 881000 M⁻¹ s⁻¹
- Kd [4]: 0.839 nM
- koff [4]: 0.00173 s⁻¹
- kon [4]: 2.18e+06 M⁻¹ s⁻¹
- koff [5]: 9.6e-05 s⁻¹
- kon [5]: 110000 M⁻¹ s⁻¹
- Kd [6]: 0.873 nM
- koff [7]: 0.0002 s⁻¹
- kon [7]: 230000 M⁻¹ s⁻¹
- IgA monomer ratio (first minute) [8]: 1
- Kd [9]: 0.87 nM
- shift of the IgA size peak after antibody binding [10]: 1.5 nm
- average charge change on antibody binding [11]: 1.8 e
Substance: Goat anti-human IgA (IgG, Catalog No. STAR141, BIO-RAD) (antibody)
